Experimental data reported in PMC6765224, “Stereospecificity control in aminoacyl-tRNA-synthetases: new evidence of D-amino acids activation and editing” (Nucleic Acids Research, 2019).

Columns and labels:
Test in all cases: purified protein
purified protein [1] = substrate: N[C@@H](CO)C(=O)O; settings: amino acid activation
purified protein [2] = substrate: C[C@@H](N)C(=O)O; settings: amino acid activation, pH 7.5
purified protein [3] = substrate: C[C@H](N)C(=O)O; settings: amino acid activation, pH 7.5
purified protein [4] = substrate: N[C@@H](Cc1ccc(O)cc1)C(=O)O; type: biochemical, Thermus thermophilus; settings: amino acid activation, 4 mM ATP, 1 mM PPi, 10 mM MgCl2, pH 7.5, 60 °C
purified protein [5] = substrate: N[C@H](Cc1ccc(O)cc1)C(=O)O; type: biochemical, Thermus thermophilus; settings: amino acid activation, 4 mM ATP, 1 mM PPi, 10 mM MgCl2, pH 7.5, 60 °C
purified protein [6] = substrate: NCC(=O)O; type: biochemical, Thermus thermophilus; settings: amino acid activation, 4 mM ATP, 1 mM PPi, 10 mM MgCl2, pH 7.5, 60 °C
[7] = editing-deficient mutant, 37.0 °C
[8] = 4 mM ATP, 1 mM PPi, 10 mM MgCl2, pH 7.5, 60 °C, pH 7.5, 60.0 °C
[9] = 4 mM ATP, 1 mM PPi, 10 mM MgCl2, pH 7.5, 60 °C, 60.0 °C

B1: E. coli C666A AlaRS (Escherichia coli K-12; C666A) (protein)
chain: SKSTAEIRQAFLDFFHSKGHQVVASSSLVPHNDPTLLFTNAGMNQFKDVFLGLDKRNYSRATTSQRCVRAGGKHNDLENVGYTARHHTFFEMLGNFSFGDYFKHDAIQFAWELLTSEKWFALPKERLWVTVYESDDEAYEIWEKEVGIPRERIIRIGDNKGAPYASDNFWQMGDTGPCGPCTEIFYDHGDHIWGGPPGSPEEDGDRYIEIWNIVFMQFNRQADGTMEPLPKPSVDTGMGLERIAAVLQHVNSNYDIDLFRTLIQAVAKVTGATDLSNKSLRVIADHIRSCAFLIADGVMPSNENRGYVLRRIIRRAVRHGNMLGAKETFFYKLVGPLIDVMGSAGEDLKRQQAQVEQVLKTEEEQFARTLERGLALLDEELAKLSGDTLDGETAFRLYDTYGFPVDLTADVCRERNIKVDEAGFEAAMEEQRRRAREASGFGADYNAMIRVDSASEFKGYDHLELNGKVTALFVDGKAVDAINAGQEAVVVLDQTPFYAESGGQVGDKGELKGANFSFAVEDTQKYGQAIGHIGKLAAGSLKVGDAVQADVDEARRARIRLNHSATHLMHAALRQVLGTHVSQKGSLVNDKVLRFDFSHNEAMKPEEIRAVEDLVNTQIRRNLPIETNIMDLEAAKAKGAMALFGEKYDERVRVLSMGDFSTELAGGTHASRTGDIGLFRIISESGTAAGVRRIEAVTGEGAIATVHADSDRLSEVAHLLKGDSNNLADKVRSVLERTRQLEKELQQLKEQAAAQESANLSSKAIDVNGVKLLVSELSGVEPKMLRTMVDDLKNQLGSTIIVLATVVEGKVSLIAGVSKDVTDRVKAGELIGMVAQQVGGKGGGRPDMAQAGGTDAAALPAALASVKGWVSAKLQ
Purified protein [1]; editing-deficient mutant
  Km: 27000 ± 6000 µM
  kcat: 0.147 ± 0.04 s⁻¹
Purified protein [2]; [7]
  Km: 60000 ± 20000 µM
  kcat: 0.1 s⁻¹
  kcat/Km: 1.8 M⁻¹ s⁻¹
Purified protein [3]; [7]
  Km: 304 ± 43 µM
  kcat: 0.18 s⁻¹
  kcat/Km: 600 M⁻¹ s⁻¹

B2: TyrRSTT (T. thermophilus tyrosyl-tRNA-synthetase) (Thermus thermophilus HB27) (protein)
chain: MAGTGHTPEEALALLKRGAEEIVPEEELLAKLKEGRPLTVKLGADPTRPDLHLGHAVVLRKMRQFQELGHKVVLIIGDFTGMIGDPSGRSKTRPPLTLEETRENAKTYVAQAGKILRQEPHLFELRYNSEWLEGLTFKEVVRLTSLMTVAQMLEREDFKKRYEAGIPISLHELLYPFAQAYDSVAIRADVEMGGTDQRFNLLVGREVQRAYGQSPQVCFLMPLLVGLDGREKMSKSLDNYIGLTEPPEAMFKKLMRVPDPLLPSYFRLLTDLEEEEIEALLKAGPVPAHRVLARLLTAAYALPQIPPRIDRAFYESLGYAWEAFGRDKEAGPEEVRRAEARYDEVAKGGIPEEIPEVTIPASELKEGRIWVARLFTLAGLTPSNAEARRLIQNRGLRLDGEVLTDPMLQVDLSRPRILQRGKDRFVRVRLSD
notes: wild type
Purified protein [4]
  Km: 9 ± 2 µM
  kcat: 17.4 ± 3.9 s⁻¹
  kcat/Km: 1.93e+06 M⁻¹ s⁻¹
Purified protein [5]
  Km: 27.6 ± 7.5 µM
  kcat: 2.2 ± 0.65 s⁻¹
  kcat/Km: 80000 M⁻¹ s⁻¹

B3: AlaRSTT (Thermus thermophilus alanyl-tRNA-synthetase) (Thermus thermophilus HB27) (protein)
chain: MRTAEIREKFLSFFEGKGHLRLPSFSLIPEDDPSLLFTSAGMAPLKPYFLGAKPIFGGREWRRVTTCQECLRVGDIENVGRTSRHNTYFEMLGNFSFGDYFKKEAILWAWEFLTEHLRLDPGRLWVTVFEDDDEAYEIWRDLVGVPEERIGRFGEDENYWPGGAITHGPNGPSGPCSEIFYDRGPAYGTPDETGPNTGSGDRFVEIWNLVFTQYDRQGPIPGPGILKPLPQKNIDTGMGLYRVAAILQDVEDFYRTDTFFPIIQEVARMSGRPYEGKTSVSHRVIADHVRAVVAALSDGATFSNTGRGYVIRRLLRRALRHGYLLGLSDPFLHRLAPLVAELLGDFYPEMRENLPAVEKQIRLEEERFLETLEGGLKRLDALLSGLKPGEVLPGKEAFRLYDTYGFPLDLTVEIAAERGYGVDTEGFQKAMEEQQSRSRAAMAFEREIFKKGAQVLEELYAERGATEFLGYNALEAEAEVLALLAGDQSLLEAGPGTEVQVVLDKTPFYAEGGGQIGDFGLLEWPGGRARVETTRKTERGIFLHKARVEEGVLRVGERVRAVVDPRRRDTERNHTATHLLHAALRAVLGPHVRQAGSLVAPDRLRFDFTHPEPLKPEELERVELLVNRWIMADFPVTWRYMPLEEARKEGAMALFGEKYGEVVRVVRVEGSPLEGLESKELCGGCHVRRTGEIGAFLIRSEEAVSAGVRRIEAVTGEEAIRFARGSLNRLKALAERLEVGEAALEERLEKLLAELKEKEREVESLKARLVQAALGGGGGASLEEKGGLRWTVAELPGLDAKALRQAADDLVARGADVALVLSGGQAVLKLSPKAQGMGLEAGALFRALAEKAGGRGGGKGALAQGGGLDPRKAREALPGLLP
notes: His-tagged, pET28b, expressed in E. coli BL21(DE3)Star; wild type
Purified protein [6]
  Km: 22000 ± 8000 µM
  kcat: 6.5 ± 1.6 s⁻¹
  kcat/Km: 290 M⁻¹ s⁻¹
Purified protein [1]; [8]
  Km: 10000 ± 2000 µM
  kcat: 2.3 s⁻¹
  kcat/Km: 236 M⁻¹ s⁻¹
Purified protein [2]; [9]
  Km: 2190 ± 500 µM
  kcat: 0.21 s⁻¹
  kcat/Km: 120 M⁻¹ s⁻¹
Purified protein [3]; [9]
  Km: 139 ± 12 µM
  kcat: 7.88 s⁻¹
  kcat/Km: 56000 M⁻¹ s⁻¹
